Data published in article PMC7332683, “A ferredoxin-dependent dihydropyrimidine dehydrogenase in Clostridium chromiireducens” (Bioscience Reports, 2020).

T1: PydAc (Clostridium chromiireducens, UniProt A0A399ILH0)
T1 construct: gene preA; FMN and two Fdx domains, no FAD/NADPH domain; strain C1 (DSM12136) is given only for the growth test
T1 sequence (A0A399ILH0 1-499): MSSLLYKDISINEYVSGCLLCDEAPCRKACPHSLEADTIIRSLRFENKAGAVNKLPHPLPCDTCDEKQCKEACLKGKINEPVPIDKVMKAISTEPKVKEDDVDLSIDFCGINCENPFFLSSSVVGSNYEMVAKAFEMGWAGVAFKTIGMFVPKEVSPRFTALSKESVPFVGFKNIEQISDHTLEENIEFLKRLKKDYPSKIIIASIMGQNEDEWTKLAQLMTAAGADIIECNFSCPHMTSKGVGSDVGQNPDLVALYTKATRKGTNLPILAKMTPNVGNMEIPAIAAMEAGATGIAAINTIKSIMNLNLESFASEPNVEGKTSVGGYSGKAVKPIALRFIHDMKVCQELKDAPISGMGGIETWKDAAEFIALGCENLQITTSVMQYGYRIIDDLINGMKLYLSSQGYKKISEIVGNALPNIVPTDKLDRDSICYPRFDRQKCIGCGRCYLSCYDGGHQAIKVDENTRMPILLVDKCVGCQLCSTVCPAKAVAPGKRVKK

B1: PydAc (Clostridium chromiireducens) (protein)
chain: T1 sequence (A0A399ILH0 1-499)
notes: FMN and two Fdx domains, no FAD/NADPH domain; strain C1 (DSM12136) is given only for the growth test

How the values were obtained:
PydAc = target: T1, PydAc; experiment: spectrophotometric assay of reduced methyl viologen oxidation at […] nm, anaerobic; activity with and without added FMN; type: biochemical; conditions: 15 uM FMN added, uracil, pH 7.5, predominantly apo recombinant enzyme
purified protein = substrate: O=c1cc[nH]c(=O)[nH]1; experiment: purified protein; type: biochemical, Clostridium chromiireducens; conditions: 0.1 mM reduced methyl viologen (MV+), 15 uM FMN, 0.1 M KCl, 20 mM Tris-HCl, pH 7.5, 0.2 uM reconstituted PydAc

Row | Molecule | spectrophotometric assay of reduced methyl viologen oxidation at 600 nm, anaerob (PydAc) | Km (purified protein) [µM] | kcat (purified protein) [s⁻¹]
1 | Cc1cc2nc3c(=O)[nH]c(=O)nc-3n(C[C@H](O)[C@H](O)[C@H](O)COP(=O)(O)O)c2cc1C [FMN] | omission of FMN from the assay mixture led to a large decrease in activity | – | –
2 | B1 | – | 130 ± 30 | 0.92 ± 0.04
